This is an account of results in paper PMC10108556 (Antibody Therapeutics, 2023).

One test addresses RBD-his (SARS-CoV-2, UniProt P0DTC2). The test can be described thus: AlphaScreen or HTRF. Background: In Alpha technology, singlet oxygen from a donor bead excites a nearby acceptor bead.
Test [1] has as its target T1, SARS-CoV-2 RBD domain (residues 319-541) (SARS-CoV-2 Wuhan-Hu-1 (MN908947), UniProt P0DTC2). Nature of the test: cryo-EM structure.
Test [2] has as its target T2, SARS-CoV-2 RBD domain (residues 319–541) with C-terminal twin-strep-tag II (SARS-CoV-2 Wuhan-Hu-1 (MN908947), UniProt P0DTC2). Nature of the test: cryo-EM structure.
For test [3], the target named is T2, SARS-CoV-2 RBD domain (residues …). Nature of the test: crystal structure.
Test [4] deals with T1, SARS-CoV-2 RBD domain (residues 319-541). The test can be described thus: crystal structure.

B1: nAb A34–2 (antibody, V domains shown)
VH: EVQLVESGGGLVQPGRSLRLSCAASGFTFDESAMHWVRQAPGEGLEWVSGISWNSGRIAYADSVRGRFTISRDNAKNSLYLQMNSLRAEDTALYFCALTTSGWFSFDYWGQGTLVTVSS
VL: SYVLTQPPSVSVAPGKTARITCGGNNIGSKSVHWYQQKPGQAPVPVIYYDSDRPSGIPERFSGSNSGNTATLTISRVEVGDEADYYCQVWDSSSDRAVFGGGTTLTVL
Turning to B1, in the test with RBD-his, the binding result is listed as “binds”.

B2: A34-2 Fab (Fab, V domains shown)
VH: EVQLVESGGGLVQPGRSLRLSCAASGFTFDESAMHWVRQAPGEGLEWVSGISWNSGRIAYADSVRGRFTISRDNAKNSLYLQMNSLRAEDTALYFCALTTSGWFSFDYWGQGTLVTVSS
VL: SYVLTQPPSVSVAPGKTARITCGGNNIGSKSVHWYQQKPGQAPVPVIYYDSDRPSGIPERFSGSNSGNTATLTISRVEVGDEADYYCQVWDSSSDRAVFGGGTTLTVL
For the molecule B2, the binding result in test [1] is “binds”.

B3: A34–2 Fab (Fab, V domains shown)
VH: EVQLVESGGGLVQPGRSLRLSCAASGFTFDESAMHWVRQAPGEGLEWVSGISWNSGRIAYADSVRGRFTISRDNAKNSLYLQMNSLRAEDTALYFCALTTSGWFSFDYWGQGTLVTVSS
VL: SYVLTQPPSVSVAPGKTARITCGGNNIGSKSVHWYQQKPGQAPVPVIYYDSDRPSGIPERFSGSNSGNTATLTISRVEVGDEADYYCQVWDSSSDRAVFGGGTTLTVL
With B3, the binding result in test [2] is listed as “binds”.

B4: A8–1 Fab (Fab, V domains shown)
VH: EVQLVESGGGLIQPGGSLRLSCAASGLTVSSNYMTWVRQAPGKGLEWVSVIYSGGSTFYAESVKGRFTISRDNSKNTLYLQMNSLRAEDTAVYYCARDLVVYGMDVWGQGTTVIVSS
VL: IQLTQSPSFLSASVGDRVTITCRASQGISSDLAWYQQKPGKAPKLLIYAASTLQSGVPSRFSGSGSGTEFTLTISSLQPEDFATYYCQQLNSHPLAFGPGTKVDIK
In the case of B4, the binding result in test [3] is listed as “binds”.

B5: A8-1 Fab (Fab, V domains shown)
VH: EVQLVESGGGLIQPGGSLRLSCAASGLTVSSNYMTWVRQAPGKGLEWVSVIYSGGSTFYAESVKGRFTISRDNSKNTLYLQMNSLRAEDTAVYYCARDLVVYGMDVWGQGTTVIVSS
VL: IQLTQSPSFLSASVGDRVTITCRASQGISSDLAWYQQKPGKAPKLLIYAASTLQSGVPSRFSGSGSGTEFTLTISSLQPEDFATYYCQQLNSHPLAFGPGTKVDIK
Turning to B5, in test [4], the binding result was “binds”.

B6: nAb A8–1 (antibody, V domains shown)
VH: EVQLVESGGGLIQPGGSLRLSCAASGLTVSSNYMTWVRQAPGKGLEWVSVIYSGGSTFYAESVKGRFTISRDNSKNTLYLQMNSLRAEDTAVYYCARDLVVYGMDVWGQGTTVIVSS
VL: IQLTQSPSFLSASVGDRVTITCRASQGISSDLAWYQQKPGKAPKLLIYAASTLQSGVPSRFSGSGSGTEFTLTISSLQPEDFATYYCQQLNSHPLAFGPGTKVDIK
B6: the binding result with RBD-his is reported as “binds”.

B7: A5–10 Fab (Fab, V domains shown)
VH: EVQLLESGGGLVQPGGSLRLSCAASGFTFSSYAMSWVRQAPGKGLEWVSAIVGSGGSTYYADSVKGRFIISRDNSKNTLYLQMNSLRAEDTAVYYCAKSLIYGHYDILTGAYYFDYWGQGTLVTVSS
VL: AQMTQSPSSVSASVGDRVTIPCRASQGIGNWLAWYQQKPGKAPKLLIYAASSLQSGVPSRFSGSGSGTDFTLTISSLQPEDFATYYCQQANSFPPFGQGTRLEIK
Consider B7, for which, in test [2], the binding result is reported as “binds”.

B8: nAb A5–10 (antibody, V domains shown)
VH: EVQLLESGGGLVQPGGSLRLSCAASGFTFSSYAMSWVRQAPGKGLEWVSAIVGSGGSTYYADSVKGRFIISRDNSKNTLYLQMNSLRAEDTAVYYCAKSLIYGHYDILTGAYYFDYWGQGTLVTVSS
VL: AQMTQSPSSVSASVGDRVTIPCRASQGIGNWLAWYQQKPGKAPKLLIYAASSLQSGVPSRFSGSGSGTDFTLTISSLQPEDFATYYCQQANSFPPFGQGTRLEIK
With B8, the binding result with RBD-his was “binds”.

B9: A5-10 Fab (Fab, V domains shown)
VH: EVQLLESGGGLVQPGGSLRLSCAASGFTFSSYAMSWVRQAPGKGLEWVSAIVGSGGSTYYADSVKGRFIISRDNSKNTLYLQMNSLRAEDTAVYYCAKSLIYGHYDILTGAYYFDYWGQGTLVTVSS
VL: AQMTQSPSSVSASVGDRVTIPCRASQGIGNWLAWYQQKPGKAPKLLIYAASSLQSGVPSRFSGSGSGTDFTLTISSLQPEDFATYYCQQANSFPPFGQGTRLEIK
With B9, in test [1], the binding result is given as “binds”.
